From article PMC4102529, “FRET Based Quantification and Screening Technology Platform for the Interactions of Leukocyte Function-Associated Antigen-1 (LFA-1) with InterCellular Adhesion Molecule-1 (ICAM-1)” (PLoS ONE, 2014)

Tested on: LFA-1 (αLβ2)
Test: Steady-state in-solution FRET binding assay (Alexa Fluor 488-LFA-1 donor / Alexa Fluor 555-D1-D2-Fc acceptor) to determine Kd
Design: species or system human
Description: In determining the equilibrium dissociation constant (Kd) between the interacting protein pairs, LFA-1 and D1-D2-Fc, from the FRET binding assay, several concentrations of the acceptor conjugate, Alexa Fluor 555-D1-D2-Fc, were added to a fixed concentration of the donor conjugate, Alexa Fluor 488-LFA-1. The donor conjugate concentration was kept constant at 100 nM while the acceptor conjugate concentration was varied from 0 upto 1.6 µM. These FRET mixtures, with different donor-to-acceptor ratios, were excited by 470 and 530 nm. […] The peak intensity at 570 nm has contributions from unquenched donor emissions, direct acceptor emission and the emission of acceptor due to FRET (FFRET). However, when the FRET mixture was excited with 530 nm, only a single peak corresponding to the direct emission of the acceptor (FA) was observed.
Thus, to obtain the absolute maximum FRET emission signal at 570 nm (FFRETmax), we need to quantify each contribution from the donor and acceptor emissions as well as the FRET emission signal (FFRET). […]
In general, the direct emission of Alexa Fluor 488-LFA-1 at 570 nm is expected to be proportional to its emission at 520 nm when excited at 470 nm. […] The calculated value of “b” was 0.101±0.008. […]

B1: D1-D2-Fc: chimeric molecule consisting of the amino-terminal first two Ig domains of human ICAM-1 (D1-D2) fused to IgG1 Fc region (protein)
chain: QTSVSPSKVILPRGGSVLVTCSTSCDQPKLLGIETPLPKKELLLPGNNRKVYELSNVQEDSQPMCYSNCPDGQSTAKTFLTVYWTPERVELAPLPSWQPVGKNLTLRCQVEGGAPRANLTVVLLRGEKELKREPAVGEPAEVTTTVLVRRDHHGANFSCRTELDLRPQGLELFENTSAPYQLQTFVLPATPPQLVSPRVLEVDTQGTVVCSLDGLFPVSEAQVHLALGDQRLNPTVTYGNDSFSAKASVSVTAEDEGTQRLTCAVILGNQSQETLQTVTIYSFPAPNVILTKPEVSEGTEVTVKCEAHPRAKVTLNGVPAQPLGPRAQLLLKATPEDNGRSFSCSATLEVAGQLIHKNQTRELRVLYGPRLDERDCPGNWTWPENSQQTPMCQAWGNPLPELKCLKDGTFPLPIGESVTVTRDLEGTYLCRARSTQGEVTRKVTVNVLSPRYEIVIITVVAAAVIMGTAGLSTYLYNRQRKIKKYRLQQAQKGTPMKPNTQATPP
modifications: Alexa Fluor 555 (succinimidyl ester) on amine groups (amine terminus, ε-amino groups of lysines), random; F/P molar ratio 3.14±0.27; left off: Fc (IgG1), end not stated, kept
notes: chimeric molecule consisting of the amino-terminal first two Ig domains of human ICAM-1 (D1-D2) fused to IgG1 Fc region
In the case of B1, the “maximum FRET emission signal (FFRETmax)” value (at 570 nm, 100 nM Alexa Fluor 488-LFA-1, Alexa Fluor 555-D1-D2-Fc 0 to 1.6 µM, fit of Eq. (6), adj. R-square = 0.9895) is reported as 6.33×10^3 RFU and the Kd (steady-state FRET, 100 nM Alexa Fluor 488-LFA-1 fixed, Alexa Fluor 555-D1-D2-Fc 0 to 1.6 µM, PBS, pH 7.4, 1 mM EGTA, 2 mM Mg^2+, 50 µl, 96-well plate, excitation 470 nm, emission 520/570 nm, nonlinear fit Eq. (6), one-to-one, data points mean (rms) of 9 measurements, 3 samples, read-out: dissociation constant (Kd) of the LFA-1/D1-D2-Fc interaction) is reported as 17.9 ± 1.34 nM.
